Data set [1] concerns the molecule itself. The data set can be described thus: crystal structure; FBF-2 RBD + CT with cFBE RNA (5′-CUGUGAAUG-3′), 2.1 Å; CT residues 607-613 seen bound to the RBD of the same construct (intramolecular by the paper's words).
In another data set the target is T1, FBF-2 RBD+CT (Caenorhabditis elegans, UniProt Q09312 164-632).
T1 sequence: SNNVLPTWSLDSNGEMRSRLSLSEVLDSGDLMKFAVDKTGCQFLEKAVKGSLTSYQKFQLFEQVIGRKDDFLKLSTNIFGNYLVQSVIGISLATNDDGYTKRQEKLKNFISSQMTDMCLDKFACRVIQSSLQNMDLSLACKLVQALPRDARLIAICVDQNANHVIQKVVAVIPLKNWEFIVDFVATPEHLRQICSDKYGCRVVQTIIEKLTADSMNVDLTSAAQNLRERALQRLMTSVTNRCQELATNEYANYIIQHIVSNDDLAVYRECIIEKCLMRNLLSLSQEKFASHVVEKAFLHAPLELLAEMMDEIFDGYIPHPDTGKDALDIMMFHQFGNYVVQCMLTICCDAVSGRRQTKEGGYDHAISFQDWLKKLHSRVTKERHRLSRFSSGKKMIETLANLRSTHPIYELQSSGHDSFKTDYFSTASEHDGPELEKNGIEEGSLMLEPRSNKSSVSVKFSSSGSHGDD
The data set can be described thus: crystal structure; 2.1 A; 30% PEG 400, 0.1 M Tris pH 8.5; EMSA: FBF-2 in 20 mM HEPES pH 7.4, 150 mM NaCl, 0.5 mM TCEP mixed 1:1 with 5 nM final RNA in 10 mM HEPES pH 7.4, 0.01% Tween 20, 0.1 mg/ml BSA, 0.1 mg/ml yeast. To be noted: protein: recombinant; tags: none (His6-SUMO removed with Ulp1). For orientation: In EMSA bound probe runs differently from free probe, usually more slowly.

B1: FBF-2 RBD + CT (FBF-2 residues 164-632) (domain or fragment, C. elegans, UniProt Q09312 164-632, looked up)
chain: SNNVLPTWSLDSNGEMRSRLSLSEVLDSGDLMKFAVDKTGCQFLEKAVKGSLTSYQKFQLFEQVIGRKDDFLKLSTNIFGNYLVQSVIGISLATNDDGYTKRQEKLKNFISSQMTDMCLDKFACRVIQSSLQNMDLSLACKLVQALPRDARLIAICVDQNANHVIQKVVAVIPLKNWEFIVDFVATPEHLRQICSDKYGCRVVQTIIEKLTADSMNVDLTSAAQNLRERALQRLMTSVTNRCQELATNEYANYIIQHIVSNDDLAVYRECIIEKCLMRNLLSLSQEKFASHVVEKAFLHAPLELLAEMMDEIFDGYIPHPDTGKDALDIMMFHQFGNYVVQCMLTICCDAVSGRRQTKEGGYDHAISFQDWLKKLHSRVTKERHRLSRFSSGKKMIETLANLRSTHPIYELQSSGHDSFKTDYFSTASEHDGPELEKNGIEEGSLMLEPRSNKSSVSVKFSSSGSHGDD
notes: The tag was cleaved with Ulp1 protease; also called FBF-2^164–632; wild type RBD + CT; source: E. coli BL21-CodonPlus (DE3)-RIL, purified (Ni-NTA, heparin, Superdex 75); not shown: His6-SUMO, N-terminal, cleaved
On to B1, for which the binding result in data set [1] was “binds”.

As to CUGUGAAUG (ssRNA) [cFBE RNA], in the data set with FBF-2 RBD+CT, the binding result was “binds”.

For the origin of these results see publication PMC10641069, “Intra- and inter-molecular regulation by intrinsically-disordered regions governs PUF protein RNA binding” (Nature Communications, 2023).
